Measurements published in publication PMC9107065.

Target: 30-601-30 nucleosome with Cy3-labeled H2B(K120C) (Xenopus laevis)
Experiment: other fluorescence titration

Saccharomyces cerevisiae Chd1[Y137A] (from UniProt P32657 118-1274) (enzyme)
other: 40%
